B1: Pistol ribozyme (parent)
chain: GGGUCGUUGUUCCAUAAUCGCGUGGAUAUGGCACGCAAGUUUCUACCGGGCACCGUAAAUGUCCGACUGGAGCCGUUCGGGCGGCUAUAAACAGACCUCAGGCCCGAAGCGUGGCGGCACCUGCCGCCGGUGGUAAAAAAGAUCGGAAGAGCACACGUCU

Variants of: B1
Experiment: aptazyme ON/OFF ratio, guanine; higher = stronger switching; co-transcriptional cleavage with and without guanine

Row | Variant | aptazyme ON/OFF ratio
1 | U8C G9C U11C C12A | 1.08
2 | U7A G9U U10C C12U C13A | 1.14
3 | U7C U8G U10C U11C C12U C13G | 1.23
4 | U7A U8A G9A U10C U11A C13U | 1.09
5 | U7A U8A G9U U10C U11G C12A C13A | 1.14
6 | U7A G9U U10A U11G C12U C13G | 1.13
7 | U7G U8A C12G C13A | 1.51
8 | U8G G9A U10G U11C C12G C13G | 1.25
9 | U7A U8C U10G U11C C12A C13G | 1.12
10 | G9A U10G C12G C13G | 1.21
11 | U7A U8C G9C U10C U11A C12A C13A | 1.01
12 | U7C U8A G9U U10G U11C C13A | 1.2
13 | U7G U8A U10A U11C C12A C13U | 1.17
14 | U8G G9A U10G U11G C13G | 1.15
15 | U7C U8C G9U U10G C13U | 1.39
16 | U7A G9C U10C U11A C12G | 1.1
17 | G9C U11G C12U C13A | 1.3
18 | U7A G9C U10A U11A C13A | 1.11
19 | U8G U10C U11A C12A | 1.39
20 | U7C U8A U11G C12A C13U | 1.24
21 | U7C U8G G9U U10A U11G C13G | 1.04

Row | Variant | aptazyme ON/OFF ratio
22 | U7G U8C G9A U10A U11A C12U | 1.4
23 | U7A U8C U10C U11G C12U C13A | 1.28
24 | U7C U8A G9U U10C U11G C13U | 1.19
25 | U7A G9A U10G U11C C12A C13A | 1.16
26 | U7A U8A G9A U10G U11A C12A | 1.15
27 | U7C G9U U10A U11G C13A | 1.14
28 | U7A U8C G9C U10A U11C C12A C13G | 1.16
29 | U7C U8A U10G C13A | 1.52
30 | U7G U8G U10A U11G | 1.65
31 | U7A U8C U10C U11A C12U C13U | 1.27
32 | U8G G9U U10C U11C C13G | 1.04
33 | U7A G9U U10A C12U C13U | 1.17
34 | U8A G9C U10G C13A | 1.38
35 | U8G G9A U10G U11A C12A C13G | 1.27
36 | U7C U8C G9C C13U | 1.05
37 | U7C U8C G9A U11C C12A C13A | 1.29
38 | U7C G9U U10G C12U | 1.39
39 | U7A G9C U10A U11C C13U | 1.05
40 | U7C U8C G9C U10A U11A C12G | 1.08
41 | U7A U8G G9U U10G U11G C12G | 1.35
42 | U7G G9C U10C U11G C12G C13G | 1.08

Row | Variant | aptazyme ON/OFF ratio
43 | U7C U8G U10A C12U | 2.01
44 | U7C U8G G9U U10C U11A C12U C13U | 1.34
45 | U7G G9C U10C C12G C13U | 1.23
46 | U7A G9C U10A U11C C12A | 1.08
47 | U8C G9A U11C C13A | 1.06
48 | U7G U8G G9C U11C | 2.07
49 | U7C U10A U11C C12U | 1.03
50 | U7C U8G U10C U11A C13A | 1.32
51 | U7A U8A G9U U10C U11G C12G C13A | 1.15
52 | U7A U8G G9C U10C C13G | 1.1
53 | U7C U8C U10C U11C C12G C13U | 1.31
54 | U7C U8C G9U U10G U11A C12A | 1.37
55 | U7G U8G U10G C12U C13U | 1.32
56 | U7A U8G U10A U11C C13U | 1.05
57 | U7C U8G U10A C12A C13A | 1.16
58 | G9U U10A C13G | 1.27
59 | U7G U8A G9C U11C C12U C13A | 1.06
60 | U8C U10C C12G C13U | 1.33
61 | U7A G9C U10A U11C C12G C13G | 1.12
62 | U7G U8A U10C U11G C12A C13G | 1.19
63 | U7C U8G G9U U10A U11C C12G C13A | 1.16

Row | Variant | aptazyme ON/OFF ratio
64 | U7C U8C G9A U11A C12U C13A | 1.26
65 | U8A G9A U10G U11C | 1.05
66 | U8A G9C C12U | 1.3
67 | U7A U8A G9C U10C U11G C12A C13G | 1.03
68 | U7C U8C G9U U11C C12U | 1.04
69 | U7C U10G U11C C12U | 1.16
70 | U7G U8C U11G C12U C13A | 1.14
71 | U7C U8A G9U U10C U11G C12U C13A | 1.12
72 | U7C U8A G9U U10G U11G | 1.08
73 | U7C G9C U10C U11C C12G C13G | 1.07
74 | U7A U8G G9U U11G C12U C13A | 1.18
75 | U7A U8C U10A C12A C13A | 1.22
76 | U7A G9U U11C C12A C13U | 1.24
77 | U7C U10C C12U C13U | 1.36
78 | U7C U8G G9C U10C U11A C12U | 1.09
79 | U7G U8A G9U U10C U11G C13U | 1.09
80 | U7G U8C G9U U10G U11C C12G C13U | 1.29
81 | U7C U8G G9C U10A C12A C13A | 1.22
82 | U7A U8C G9A U10A U11G C13U | 1.17
83 | U7C U8C G9A U10C U11C C12U | 1.41
84 | G9U U10C C13G | 1.13

— the RNAGym collection of RNA variant scans (doi:10.1021/acssynbio.7b00057)
